Results reported in publication PMC4406585, “Generating Recombinant Antibodies against Putative Biomarkers of Retinal Injury” (PLoS ONE, 2015).
*: point of attachment. Biotin = O=C1N[C@H]2[C@H](CS[C@H]2CCCCC(=O)*)N1

Experiments:
[1] = biological target: T1, Guanine Nucleotide-Binding Protein Beta 5 (GBB5), rabbit, endogenous (Oryctolagus cuniculus, UniProt Q6PNB6); assay: far-Western, overlay or dot blot; western blot: retinal lysates resolved by SDS-PAGE, on PVDF; probed with 1 μg/mL scFv in PBS for 2 h; anti-Flag-HRP M2, ECL; details: one partner purified
T1 construct: expected size 38.7 kDa printed; also called rabbit GBB5; source: endogenous, rabbit retinal homogenate

[2] = biological target: T2, Guanine Nucleotide-Binding Protein Beta 5 (GBB5), mouse, endogenous (Mus musculus, UniProt P62881, strain); assay: as above; details: one partner purified
T2 construct: also called mouse GBB5; source: endogenous, mouse retinal homogenate

[3] = biological target: T3, Guanine Nucleotide-Binding Protein Beta 5 (GBB5), chicken, endogenous (Gallus gallus, UniProt A0A8V0ZF95); assay: as above; details: one partner purified
T3 construct: expected size 38.8 kDa printed; also called chicken homolog; source: endogenous, chicken retina or whole eye homogenate

GBB5 peptide (Guanine …) [4] = biological target: T4, GBB5 peptide (Guanine Nucleotide-Binding Protein Beta 5) (Oryctolagus cuniculus peptide, synthetic, SMILES …); assay: photonic crystal biosensor (SRU Biosystems BIND); biotinylated peptide, 50 ng/well, on streptavidin-coated 96-well biosensor plate, blocked with 5% BSA; scFv in decreasing concentration in 7 wells in elution buffer; overnight end-point change in peak wavelength; dose response curve, EC50 used to estimate Kd; details: both partners purified
T4 construct: four amino acid linker, printed in words: Glycine-Serine-Glycine-Serine; also called wild-type peptide; Ctrl; source: synthetic peptide
T4 chain: Biotin-GSGSKLHDVELHQVAERV-NH2

GBB5 peptide (Guanine …) [5] = biological target: T4, GBB5 peptide (Guanine …); assay: ELISA; peptides at 25 nM on NeutrAvidin-coated plate; scFv at 30 nM, scFv-Fc at 10 nM in PBST; anti-FLAG-HRP, ABTS, 405 nm; details: both partners purified

T2 sequence (P62881 whole entry, looked up, change not shown): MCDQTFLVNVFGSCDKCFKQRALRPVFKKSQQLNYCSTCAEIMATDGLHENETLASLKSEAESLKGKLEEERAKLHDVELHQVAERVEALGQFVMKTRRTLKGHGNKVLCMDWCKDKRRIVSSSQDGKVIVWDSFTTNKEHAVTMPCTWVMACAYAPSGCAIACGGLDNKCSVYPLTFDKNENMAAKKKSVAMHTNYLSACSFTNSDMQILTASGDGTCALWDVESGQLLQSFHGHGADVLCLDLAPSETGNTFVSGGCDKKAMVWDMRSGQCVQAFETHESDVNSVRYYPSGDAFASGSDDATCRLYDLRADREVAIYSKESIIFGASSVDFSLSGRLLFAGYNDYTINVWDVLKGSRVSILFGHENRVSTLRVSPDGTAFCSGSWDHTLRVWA
T1 sequence (Q6PNB6 whole entry): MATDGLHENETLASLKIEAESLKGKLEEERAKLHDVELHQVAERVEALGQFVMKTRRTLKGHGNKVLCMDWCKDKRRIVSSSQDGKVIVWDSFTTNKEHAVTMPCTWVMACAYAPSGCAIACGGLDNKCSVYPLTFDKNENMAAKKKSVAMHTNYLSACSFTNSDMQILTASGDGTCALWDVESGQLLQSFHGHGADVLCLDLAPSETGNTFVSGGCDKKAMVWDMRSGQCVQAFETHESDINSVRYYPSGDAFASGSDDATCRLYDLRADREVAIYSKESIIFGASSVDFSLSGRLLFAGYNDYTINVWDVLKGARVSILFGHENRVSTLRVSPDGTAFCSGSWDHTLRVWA

| Binder | binding result [1] | binding result [2] | binding result [3] | EC50 (GBB5 peptide (Guanine …) [4]) [nM] | fold ELISA signal against the soluble scFv (GBB5 peptide (Guanine …) [5]) [fold] |
| --- | --- | --- | --- | --- | --- |
| anti-GBB5-H9 scFv (scFv, V domains shown, VL of clone H9, from a phage library of human B-cell cDNA; 14 amino acid linker of the library vector between VL and VH; VH of clone H9, from a phage library of human B-cell cDNA; Order VL-linker-VH; also called anti-GBB5-scFv H9; source: E. coli TG-1 (pKP300ΔIIIΔAP, OmpA signal to the periplasm, low phosphate media), purified (IMAC); not shown: FLAG, N-terminal, kept) VH: EVQLVQSGGGLVQPGGSLRLSCAASGFTVSSNYMSWVRQAPGKGLEWVSSISSSSSYIYYADSVKGRFTISRDNAKNSLYLQMNSLRAEDTAVYYCARSYPFDYWGQGTLVTVSS VL: NFMLTQPHSVSESPGKAVTISCTGSSGDVARNYVQWYQQRPGSAPIIVIYEDTQRPSGVPDRFSGSIDSSSNSASLTISGLTTEDEADYYCQSYDGHNVIFGGGTKLTVL | binds | binds | binds | ~300 |  |
| anti-GBB5-H9 scFv-Fc (Fc fusion, human, VL as in m1 (clone H9); 14 amino acid linker of the library vector between VL and VH; VH as in m1 (clone H9); H9 scFv coding region subcloned upstream of the Fc through NcoI and NotI; order after the scFv: Fc, (His)6, tri-FLAG; Homodimer through disulfide bonds of the Fc; also called Fc format of the H9 clone; bivalent Fc format; source: HEK-293 Freestyle cells, transiently transfected …) VH: EVQLVQSGGGLVQPGGSLRLSCAASGFTVSSNYMSWVRQAPGKGLEWVSSISSSSSYIYYADSVKGRFTISRDNAKNSLYLQMNSLRAEDTAVYYCARSYPFDYWGQGTLVTVSS VL: NFMLTQPHSVSESPGKAVTISCTGSSGDVARNYVQWYQQRPGSAPIIVIYEDTQRPSGVPDRFSGSIDSSSNSASLTISGLTTEDEADYYCQSYDGHNVIFGGGTKLTVL |  |  |  |  | ~4.5 |
